This data set can be described thus: collision cross section of modified peptide (TIMS, N2, iRT-aligned); higher = larger / more extended gas-phase ion. The method, boiled down:
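Synthetic peptide pools (~100 fmol/µL in 2% acetonitrile/0.1% formic acid, iRT standard spiked 1:40) were separated on a 120-min nanoflow C18 gradient at 60 °C. They were analysed on a timsTOF Pro/HT (dda-PASEF, nitrogen, ~2.4 mbar) and identified with MaxQuant. 1/K0 was calibrated with three reference ions and aligned run-wise to the median iRT peptide deviation. Collision cross section came from the Mason-Schamp equation, averaging 1–3 technical replicates of the most abundant feature per charge state.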

The mark [1] stands for this setting: charge state: 2, modification: Biotin.
[2] abbreviates: charge state: 2, modification: Butyryl.
Setting [3] is: charge state: 2, modification: Malonyl.
[4] abbreviates: charge state: 2, modification: Trimethyl (K).
Setting [5] is: charge state: 3, modification: Trimethyl (K).
Setting [6] is: charge state: 2, modification: hydroxyisobutyryl.
[7] abbreviates: charge state: 2, modification: Propionyl.
[8] abbreviates: charge state: 3, modification: Propionyl.
Where [9] appears, read: charge state: 2, modification: Succinyl.
The mark [10] stands for this setting: charge state: 3, modification: Butyryl.

± gives the standard deviation.

For the substance APEYLHR [_APEY(Nitro (Y))LHR_], the collision cross section (charge state: 2, modification: Nitro (Y)) is 321.02 ± 1.2 Å².
On to GSLEKGSPEDK [_GSLEK(Biotin)GSPEDK_], for which, under setting [1], the collision cross section stood at 382.87 Å².
For the substance SEASSEFAKK [_SEASSEFAK(Butyryl)K_], the collision cross section under setting [2] is 356.58 ± 1.8 Å².
Under setting [3], “IINEPTAAAIAYGLDKK [_IINEPTAAAIAYGLDK(Malonyl)K_]” returned a collision cross section of 458.91 ± 0.99 Å².
Take “TEVLSPNSKVESK [_TEVLSPNSK(Trimethyl (K))VESK_]”: the collision cross section runs as follows: under setting [4], 405.78 ± 0.61 Å²; under setting [5], 479.92 ± 1.6 Å².
For “DTPTSAGPNSFNKGK [_DTPTSAGPNSFNK(hydroxyisobutyryl)GK_]”, the collision cross section by setting is: under setting [6], 416.06 ± 1.1 Å²; (charge state: 3, modification: hydroxyisobutyryl) 443.44 ± 3 Å².
On to “GTISAPGKVVTAAAQAK [_GTISAPGK(Biotin)VVTAAAQAK_]”, for which the collision cross section reads like this: under setting [1], 458.66 ± 0.47 Å²; (charge state: 3, modification: Biotin) 550.8 ± 0.34 Å².
Take “DLGKFQVATDALK [_DLGK(Propionyl)FQVATDALK_]”: the collision cross section under setting [7] was found to be 407.94 Å².
In the case of “ITESVAETAQTIKK [_ITESVAETAQTIK(Propionyl)K_]”, the collision cross section was 421.06 ± 1.1 Å² under setting [7] and 515.07 Å² under setting [8].
For VETTVTSLKTK [_VETTVTSLK(Malonyl)TK_], the collision cross section under setting [3] worked out at 384.89 ± 0.011 Å².
LTSLNVKYNNDK [_LTSLNVK(Succinyl)YNNDK_]: the collision cross section under setting [9] is given as 411.65 ± 1.1 Å².
Substance SQLANTEPTK [_SQLANT(HexNAc (ST))EPTK_] displayed a collision cross section (charge state: 2, modification: HexNAc (ST)) of 372.78 ± 0.59 Å².
As to INNFSADIKDSK [_INNFSADIK(Butyryl)DSK_], the collision cross section is listed as 405.78 ± 0.75 Å² under setting [2] and 461.68 ± 3.2 Å² under setting [10].
Consider LLEQKTQESQK [_LLEQK(Succinyl)TQESQK_], for which the collision cross section under setting [9] is 400.32 ± 0.77 Å².
In the case of “LFVGGIKEDTEEHHLR [_LFVGGIK(Butyryl)EDTEEHHLR_]”, the collision cross section is, setting by setting: under setting [2], 500.41 ± 0.28 Å²; under setting [10], 545.89 ± 1.3 Å².
As for “DSINFLDHINGKK [_DSINFLDHINGK(Methyl (K))K_]”, the collision cross section (charge state: 3, modification: Methyl (K)) amounted to 461.65 ± 2.7 Å².
In turn, “TLHLSHLNRFPAR [_TLHLSHLNR(Citrullination (R))FPAR_]” registered a collision cross section (charge state: 3, modification: Citrullination (R)) of 509.04 ± 32 Å².
As for “SLGEPAAGEGSAKR [_SLGEPAAGEGSAK(Trimethyl (K))R_]”, the collision cross section was found to be 404.92 ± 19 Å² under setting [4] and 462.02 ± 2.7 Å² under setting [5].
Regarding TPNLYIYSKK [_TPNLYIYSK(Butyryl)K_], the collision cross section runs as follows: under setting [2], 388.09 ± 0.85 Å²; under setting [10], 439.93 Å².
LQLEIDQKK [_LQLEIDQK(Crotonyl)K_] registered a collision cross section (charge state: 2, modification: Crotonyl) of 366.56 Å².
As for LGNDFHTNKR [_LGNDFHTNK(Propionyl)R_], the collision cross section was determined as 374.29 Å² under setting [7] and 447.46 ± 0.59 Å² under setting [8].
Under setting [9], LEKTIDDLEEK [_LEK(Succinyl)TIDDLEEK_] returned a collision cross section of 408.25 ± 0.55 Å².
As to “FLQEFYQDDELGKK [_FLQEFYQDDELGK(Acetyl (K))K_]”, the collision cross section reads like this: (charge state: 2, modification: Acetyl (K)) 444.35 ± 1.6 Å²; (charge state: 3, modification: Acetyl (K)) 501.5 ± 0.084 Å².
In the case of “AGPNASIISLKSDK [_AGPNASIISLK(Gluratylation)SDK_]”, the collision cross section (charge state: 2, modification: Glutarylation) was 416.83 ± 0.49 Å².
As to VTLEVGKVIQQGR [_VTLEVGK(Formyl)VIQQGR_], the collision cross section reads like this: (charge state: 2, modification: Formyl) 402.06 ± 2.7 Å²; (charge state: 3, modification: Formyl) 475.94 ± 2.1 Å².
As for “GFCFITYTDEEPVKK [_GFCFITYTDEEPVK(hydroxyisobutyryl)K_]”, the collision cross section under setting [6] stood at 453.41 ± 0.8 Å².
For “THLAPYSDELR [_THLAPY(Phospho (Y))SDELR_]”, the collision cross section runs as follows: (charge state: 2, modification: Phospho (Y)) 373.88 ± 0.063 Å²; (charge state: 3, modification: Phospho (Y)) 446.73 ± 1.1 Å².
